This passage reports Kd and ECM binding ratio (standard = 1) (ratio to standard antibody) results from patent US20170267783A1 (published 2017).

B1: TR01H002-E22Hh/GLS3108-k0/GL4-E22Hk/H0000-E22L (bispecific antibody, human IgG1, kappa, L234A L235A, N297A)
heavy 1: QVQLVESGGGVVQPGRSLRLSCAASGFTFSNAWMHWVRQAPGKGLEWVAQIKAKSNNYKKYYAESVKGRFTISRDDSKNSLYLQMNSLKTEDTAVYYCRYVHYYYYYGVQAWGQGTTVTVSSASTKGPSVFPLAPSSKSTSGGTAALGCLVKDYFPEPVTVSWNSGALTSGVHTFPAVLQSSGLYSLSSVVTVPSSSLGTQTYICNVNHKPSNTKVDKKVEPKSCDKTHTCPPCPAPEAAGGPSVFLFPPKPKDTLMISRTPEVTCVVVDVSHEDPEVKFNWYVDGVEVHNAKTKPREEQYASTYRVVSVLTVLHQDWLNGKEYKCKVSNKALPAPIEKTISKAKGQPREPQVYTLPPSRCELTKNQVSLSCAVKGFYPSDIAVEWESNGQPENNYKTTPPVLDSDGSFFLVSKLTVDKSRWQQGNVFSCSVMHEALHNHYTQKSLSLSPDYKDDDDK
light 1: DIVMTQSPLSLPVTPGEPASISCRSSQSLVHSNRNTYLSWYQQKPGQAPRLLIYKVSNRFSGVPDRFSGSGSGTDFTLKISRVEAEDVGVYYCGQGTQVPYTFGQGTKLEIKRTVAAPSVFIFPPSDEQLKSGTASVVCLLNNFYPREAKVQWKVDNALQSGNSQESVTEQDSKDSTYSLSSTLTLSKADYEKHKVYACEVTHQGLSSPVTKSFNRGEC
heavy 2: DIVMTQSPLSLPVTPGEPASISCRSSQSLVHSNRNTYLHWYQQKPGQAPRLLIYKVSNRFSGVPDRFSGSGSGTDFTLKISRVEAEDVGVYYCSQNTHVPPTFGQGTKLEIKSSASTKGPSVFPLAPSSKSTSGGTAALGCLVKDYFPEPVTVSWNSGALTSGVHTFPAVLQSSGLYSLSSVVTVPSSSLGTQTYICNVNHKPSNTKVDKKVEPKSCDKTHTCPPCPAPEAAGGPSVFLFPPKPKDTLMISRTPEVTCVVVDVSHEDPEVKFNWYVDGVEVHNAKTKPREEQYASTYRVVSVLTVLHQDWLNGKEYKCKVSNKALPAPIEKTISKAKGQPREPQVCTLPPSRDELTKNQVSLWCLVKGFYPSDIAVEWESNGQPENNYKTTPPVLDSDGSFFLYSKLTVDKSRWQQGNVFSCSVMHEALHNHYTQKSLSLSPHHHHHHHH
light 2: QVQLVQSGAEVKKPGASVKVSCKASGYTFTDYEMHWIRQPPGQGLEWIGAIDPKTGDTAYSQKFKGRVTLTADKSTSTAYMELSSLTSEDTAVYYCTRFYSYTYWGQGTLVTVSSASVAAPSVFIFPPSDEQLKSGTASVVCLLNNFYPREAKVQWKVDNALQSGNSQESVTEQDSKDSTYSLSSTLTLSKADYEKHKVYACEVTHQGLSSPVTKSFNRGEC
notes: CD3 arm + GPC3 arm with VH/VL exchanged
B2: TR01H040-E2702GsKsc/H0610-E2704sEpsc/L0208-k0 (bispecific antibody, human IgG4 S228P, kappa, N297A)
heavy 1: QVQLVESGGGLVQPGRSLRLSCAASGFTFSNAWMHWVRQAPGKGLEWVAQIKDKSQNYATYYAESVKGRFTISRADSKNSIYLQMNSLKTEDTAVYYCRYVHYSASYGVDAWGQGTTVTVSSASTKGPSVFPLAPCSRSTSESTAALGCLVKDYFPEPVTVSWNSGALTSGVHTFPAVLQSSGLYSLSSVVTVPSSSLGTKTYTCNVDHKPSNTKVDKRVESKYGPPCPPCPAPEFRGGPKVFLFPPKPKDTLMISRTPEVTCVVVDVSQEDPEVQFNWYVDGVEVHNAKTKPREEQFASTYRVVSVLTVLHQDWLNGKEYKCKVSNKGLPSSIEKTISKAKGQPREPQVYTLPPSQKEMTKNQVSLTCLVKGFYPSDIAVEWESNGQPENNYKTTPPVLDSDGSFFLYSKLTVDKSRWQEGNVFSCSVMHEALHNRYTQKSLSLSP
heavy 2: QVQLVQSGAEVKKPGASVKVSCKASGYTFTDYEMHWIRQPPGQGLEWIGAIDGKTPDTAYSQKFKGRVTLTADKSTSTAYMELSSLTSEDTAVYYCTRFYSYTYWGQGTLVTVSSASTKGPSVFPLAPCSRSTSESTAALGCLVKDYFPEPVTVSWNSGALTSGVHTFPAVLQSSGLYSLSSVVTVPSSSLGTQTYTCNVDHKPSNTKVDKRVESKYGPPCPPCPAPEFRGGPKVFLFPPKPKDTLMISRTPEVTCVVVDVSQEDPEVQFNWYVDGVEVHNAKTKPREEQFASTYRVVSVLTVLHQDWLNGKEYKCKVSNKGLPSSIEKTISKAKGQPREPQVYTLPPSQEEMTKNQVSLTCLVKGFYPSDIAVEWESNGQPENNYKTTPPVLDSDGSFFLYSKLTVDKSRWQEGNVFSCSVMHEALHNHYTQESLSLSP
light: B1 light 1 with L29P, S39H, S61W, G94Y
B3: TR01H082-E2702GsKsc/GCH094-E2704sEpsc/L0201-k0 (bispecific antibody, human IgG4 S228P, kappa, N297A)
heavy 1: B2 heavy 1 with A75D, I81L, S104A, S106G
heavy 2: B2 heavy 2 with K19T, I37V, P40A, Q43E, I48M, K54E, Q62E
light: B1 light 1 with S28P, L29P, S39H
B4: TR01H113-E2702GsKsc/GCH094-E2704sEpsc/L0011-k0 (bispecific antibody, human IgG4 S228P, kappa, N297A)
heavy 1: B2 heavy 1 with L11V, R16G, Y62V, S104A, S106G, A111I
heavy 2: B2 heavy 2 with K19T, I37V, P40A, Q43E, I48M, K54E, Q62E
light: B1 light 1 with S28P, S39H
B5: TR01H113-E2702sKsc/GCH065-E2704sEpsc/L0011-k0 (bispecific antibody, human IgG4 S228P, kappa, N297A)
heavy 1: B2 heavy 1 with L11V, R16G, Y62V, S104A, S106G, A111I, R437H
heavy 2: B2 heavy 2 with K19T, Q43E, K54P, Q62E
light: B1 light 1 with S28P, S39H
B6: TR01H040-E2702GsKsc/H0610-E2704sEpsc/L0000-k0 (bispecific antibody, human IgG4 S228P, kappa, N297A)
heavy 1: B2 heavy 1
heavy 2: B2 heavy 2
light: B1 light 1 with S39H
B7: TR01H040-E2702GsKsc/H0610-E2704sEpsc/L0206-k0 (bispecific antibody, human IgG4 S228P, kappa, N297A)
heavy 1: B2 heavy 1
heavy 2: B2 heavy 2
light: B1 light 1 with L29P, S39H, G94Y
B8: TR01H040-E2702GsKsc/H0610-E2704sEpsc/L0201-k0 (bispecific antibody, human IgG4 S228P, kappa, N297A)
heavy 1: B2 heavy 1
heavy 2: B2 heavy 2
light: B1 light 1 with S28P, L29P, S39H
B9: TR01H109-E2702GsKsc/GCH094-E2704sEpsc/L0011-k0 (bispecific antibody, human IgG4 S228P, kappa, N297A)
heavy 1: B2 heavy 1 with Y62V, A75D, I81L, S104A, S106G
heavy 2: B2 heavy 2 with K19T, I37V, P40A, Q43E, I48M, K54E, Q62E
light: B1 light 1 with S28P, S39H
B10: TR01H084-E2702GsKsc/GCH065-E2704sEpsc/L0011-k0 (bispecific antibody, human IgG4 S228P, kappa, N297A)
heavy 1: B2 heavy 1 with L11V, R16G, S104A, S106G, A111I
heavy 2: B2 heavy 2 with K19T, Q43E, K54P, Q62E
light: B1 light 1 with S28P, S39H
B11: TR01H040-E2702GsKsc/H0610-E2704sEpsc/L0204-k0 (bispecific antibody, human IgG4 S228P, kappa, N297A)
heavy 1: B2 heavy 1
heavy 2: B2 heavy 2
light: B1 light 1 with L29P, S39H, S61R
B12: TR01H040-E2702GsKsc/H0610-E2704sEpsc/L0203-k0 (bispecific antibody, human IgG4 S228P, kappa, N297A)
heavy 1: B2 heavy 1
heavy 2: B2 heavy 2
light: B1 light 1 with L29P, L38I, S39H
B13: TR01H109-E2702GsKsc/GCH065-E2704sEpsc/L0011-k0 (bispecific antibody, human IgG4 S228P, kappa, N297A)
heavy 1: B2 heavy 1 with Y62V, A75D, I81L, S104A, S106G
heavy 2: B2 heavy 2 with K19T, Q43E, K54P, Q62E
light: B1 light 1 with S28P, S39H
B14: TR01H067-E2702GsKsc/GCH054-E2704sEpsc/L0201-k0 (bispecific antibody, human IgG4 S228P, kappa, N297A)
heavy 1: B2 heavy 1 with A75D, I81L, S104A
heavy 2: B2 heavy 2 with K19T, Q43E, K54E, Q62E
light: B1 light 1 with S28P, L29P, S39H
B15: TR01H113-E2702GsKsc/GCH065-E2704sEpsc/L0011-k0 (bispecific antibody, human IgG4 S228P, kappa, N297A)
heavy 1: B2 heavy 1 with L11V, R16G, Y62V, S104A, S106G, A111I
heavy 2: B2 heavy 2 with K19T, Q43E, K54P, Q62E
light: B1 light 1 with S28P, S39H
B16: TR01H067-E2702GsKsc/GCH054-E2704sEpsc/L0212-k0 (bispecific antibody, human IgG4 S228P, kappa, N297A)
heavy 1: B2 heavy 1 with A75D, I81L, S104A
heavy 2: B2 heavy 2 with K19T, Q43E, K54E, Q62E
light: B1 light 1 with S25P, L29P, S39H, G94Y
B17: TR01H040-E2702GsKsc/H0610-E2704sEpsc/L0211-k0 (bispecific antibody, human IgG4 S228P, kappa, N297A)
heavy 1: B2 heavy 1
heavy 2: B2 heavy 2
light: B1 light 1 with S28P, L29P, S39H, G94Y
B18: TR01H082-E2702GsKsc/GCH094-E2704sEpsc/L0011-k0 (bispecific antibody, human IgG4 S228P, kappa, N297A)
heavy 1: B2 heavy 1 with A75D, I81L, S104A, S106G
heavy 2: B2 heavy 2 with K19T, I37V, P40A, Q43E, I48M, K54E, Q62E
light: B1 light 1 with S28P, S39H
B19: TR01H084-E2702GsKsc/GCH094-E2704sEpsc/L0011-k0 (bispecific antibody, human IgG4 S228P, kappa, N297A)
heavy 1: B2 heavy 1 with L11V, R16G, S104A, S106G, A111I
heavy 2: B2 heavy 2 with K19T, I37V, P40A, Q43E, I48M, K54E, Q62E
light: B1 light 1 with S28P, S39H
B20: TR01H067-E2702GsKsc/GCH054-E2704sEpsc/L0222-k0 (bispecific antibody, human IgG4 S228P, kappa, N297A)
heavy 1: B2 heavy 1 with A75D, I81L, S104A
heavy 2: B2 heavy 2 with K19T, Q43E, K54E, Q62E
light: B1 light 1 with L29P, L38I, S39Q, G94Y
B21: TR01H082-E2702GsKsc/GCH065-E2704sEpsc/L0011-k0 (bispecific antibody, human IgG4 S228P, kappa, N297A)
heavy 1: B2 heavy 1 with A75D, I81L, S104A, S106G
heavy 2: B2 heavy 2 with K19T, Q43E, K54P, Q62E
light: B1 light 1 with S28P, S39H
B22: TR01H040-E2702GsKsc/H0610-E2704sEpsc/L0209-k0 (bispecific antibody, human IgG4 S228P, kappa, N297A)
heavy 1: B2 heavy 1
heavy 2: B2 heavy 2
light: B1 light 1 with L29P, L38I, S39H, G94Y

Numbering of substitutions follows the chain as printed.

The first experiment deals with T1, soluble human CD3ε chain (human, UniProt P07766 23-126).
T1 construct: also called CD3 epsilon
T1 sequence (P07766 23-126 limits assumed): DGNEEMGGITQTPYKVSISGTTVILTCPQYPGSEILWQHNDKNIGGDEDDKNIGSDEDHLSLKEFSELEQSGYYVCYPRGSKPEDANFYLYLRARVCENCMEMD
In words: SPR (Biacore). Background: In SPR one partner is held on a chip, and binding of the other changes the refractive index at the surface.
For B1, the Kd (usually the concentration at which binding is half-saturated) was determined as 4.76 nM.

Another experiment has as its target extracellular matrix (ECM; BD Matrigel). Briefly: ECL on Matrigel-coated plate, signal divided by that of MRAH-G1d/MRAL-k0.
In the case of B2, the ECM binding ratio (standard = 1) (ratio to standard antibody) was determined as 50.4.
Consider B3, for which the ECM binding ratio (standard = 1) (ratio to standard antibody) was 1.1.
Consider B4, for which the ECM binding ratio (standard = 1) (ratio to standard antibody) amounted to 1.6.
Turning to B5, the ECM binding ratio (standard = 1) (ratio to standard antibody) turned out to be 0.3.
The same measure, in the same setting: next, B6: 0.8; B7: 15.4.
As for B8, the ECM binding ratio (standard = 1) (ratio to standard antibody) came out at 0.8.
As to B9, the ECM binding ratio (standard = 1) (ratio to standard antibody) was determined as 0.4.
Still for that read-out and setting: the same measure for B10: 1.3; for B11: 4.4.
As to B12, the ECM binding ratio (standard = 1) (ratio to standard antibody) was found to be 0.8.
Turning to B13, the ECM binding ratio (standard = 1) (ratio to standard antibody) was 0.7.
Consider B14, for which the ECM binding ratio (standard = 1) (ratio to standard antibody) stood at 0.5.
In the case of B15, the ECM binding ratio (standard = 1) (ratio to standard antibody) turned out to be 2.5.
As for B16, the ECM binding ratio (standard = 1) (ratio to standard antibody) is 3.3.
In the case of B17, the ECM binding ratio (standard = 1) (ratio to standard antibody) was found to be 15.5.
In the case of B18, the ECM binding ratio (standard = 1) (ratio to standard antibody) came out at 0.7.
For the molecule B19, the ECM binding ratio (standard = 1) (ratio to standard antibody) was found to be 1.2.
For the molecule B20, the ECM binding ratio (standard = 1) (ratio to standard antibody) came out at 0.6.
Regarding B21, the ECM binding ratio (standard = 1) (ratio to standard antibody) turned out to be 1.7.
On the same count and under the same terms, next, B22: 7.4.
